The results in this text go back to the supplement of paper PMC10126150.

± gives the standard deviation of the averaged measurements.
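Note: ATP exposure 15 min at 22 °C before imaging.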

For this data set, the system named is ATP. The data set can be described thus: switch fluorescence ratio, 500 uM ATP over buffer (Cy3 cluster intensity, sum of 5 cycles each) (fold (ratio)); higher = stronger signal-on switching upon ATP binding; sequences stand for … in TCGTCGGCAGCGTCAGATGTGTATAAGAGACAGTTTTTTTTTTTTTTTTTTTTTTTTT…TC. The note with it: aptamer strand: ATP DNA aptamer (quencher-CACCTGGGGGAGTATTGCGGAGGAAGG + anchor), 100 nM annealed; ATP concentration: 500 uM. In short, it runs like this:
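Values give the fluorescence ratio for each switch-domain sequence, averaged from per-cluster ratios of summed target-cycle to summed buffer-cycle Cy3 intensity. The Cy3-labelled switching-strand clusters sat on a modified Illumina MiSeq flow-cell, were annealed to 100 nM quencher-labelled ATP aptamer, and were imaged in selection buffer, then after 15 min with 500 uM ATP at 22 °C. Five cycles ran with NaOH stripping and re-annealing between them, and clusters outside 100-1000 RFU were excluded.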
For GGCACTAGGG, the switch fluorescence ratio was 0.94 ± 0.077. For TCTTTTGCAT the value was 1.06 ± 0.019; for GGGGGTTCCC, 0.9833 ± 0.0017. To CCTAAATGGG belongs 1.01 ± 0.077; to TGTCGCATTT, 1.04 ± 0.012; to TGACGTAGTG, 0.991 ± 0.028.

CAAAAAATTA: the switch fluorescence ratio worked out at 1.01 ± 0.031. For ATGCTGTCTG the value was 1 ± 0.043; for ATTCTTTGG, 0.9676 ± 0.0024.

As to GGGTAAGGGC, the switch fluorescence ratio is 1.01 ± 0.031.

With AATTGATTAG, the switch fluorescence ratio is 1.03 ± 0.038. For ATATTATTAC the value was 1.06 ± 0.016; for TCGGGTTTGG, 1.01 ± 0.041. To TTCCGCCGCT belongs 2.34 ± 1.8; to GGCCGGTGGA, 1.02 ± 0.038; to GAAATACGGT, 1.19 ± 0.17. On to GATGTAGCTA, for which the switch fluorescence ratio is 1.033 ± 0.00083. GACACTATTG: the switch fluorescence ratio came to 0.999 ± 0.016.

For TGGCTCAGGC, the switch fluorescence ratio amounted to 1 ± 0.025. Turning to ATTAGGGGTT, the switch fluorescence ratio is 1 ± 0.037. To GGCTAAGTTT belongs 0.97 ± 0.02. For TGAACAAGGG, the switch fluorescence ratio was 0.962 ± 0.015. In the case of ATACCAGTG, the switch fluorescence ratio stood at 1.12 ± 0.055. To GGATTGTTGG belongs 1.008 ± 0.0033; to TTCAATTTCC, 1.01 ± 0.028; to TTTAATAAGT, 0.9981 ± 0.0036.

For the sequence TTTTGGGGAA, the switch fluorescence ratio was found to be 1 ± 0.024. Turning to TGGGTTGTTA, the switch fluorescence ratio is 0.9852 ± 0.0095.

Turning to GTTAGGGGAT, the switch fluorescence ratio is 1 ± 0.011. For TGTGCTGCTG the value was 1.06 ± 0.02. On to TGGGGTTATC, for which the switch fluorescence ratio stood at 0.9931 ± 0.0079. To CGATTGGGGG belongs 1.01 ± 0.018; to TTATAATCGT, 0.988 ± 0.014. For the sequence GGGTGTGCCA, the switch fluorescence ratio is 1 ± 0.027. To ACTGATTTAT belongs 1.01 ± 0.028; to ATCTCGGCCG, 0.9864 ± 0.0012; to AAAATACCTA, 1.15 ± 0.14. As to AGTAGGAGCT, the switch fluorescence ratio is 0.962 ± 0.026. To AACCTATGCT belongs 1.012 ± 0.0018. As for CGCTCCGGGC, the switch fluorescence ratio was 1.23 ± 0.058.

Turning to CAATATGTGT, the switch fluorescence ratio was 0.986 ± 0.036. For TTTTCCTGAG the value was 1.04 ± 0.035; for CGAGGGTAAG, 1 ± 0.0022. To GATATAAAGA belongs 0.994 ± 0.046; to AAGCGGTTCG, 0.98939 ± 0.0009; to ATTGTTTGCG, 0.966 ± 0.035. CCGCGCCGAT: the switch fluorescence ratio is 1.37 ± 0.16. To ATATATAGCC belongs 1.01 ± 0.022; to GGGGAGGCCT, 1.01 ± 0.031. To TTTCGTATTC belongs 1 ± 0.015; to GTCGGGGTTG, 0.971 ± 0.014; to ATAAAATTGG, 0.988 ± 0.034.

Turning to TTCAAATGAG, the switch fluorescence ratio came to 0.98 ± 0.044.

With TGATTCTTAT, the switch fluorescence ratio was 0.97 ± 0.014. To GGTTCGGGGG belongs 0.997 ± 0.037; to GGGTTTTTGA, 1.02 ± 0.024. For TTGTTTAACT the value was 1.02 ± 0.026. For GTGGGGCGGA the value was 1.01 ± 0.023. With CATAGTGTTT, the switch fluorescence ratio came out at 1.01 ± 0.012. For CAGGGTTGGT the value was 0.977 ± 0.033; for TTCTGAATTT, 0.999 ± 0.028; for AGGCTCGGGG, 1.04 ± 0.026. On to CGGGATTAGT, for which the switch fluorescence ratio stood at 0.99 ± 0.031. With AAGGGGTGG, the switch fluorescence ratio worked out at 1.02 ± 0.029.

Regarding TCAAGGCACA, the switch fluorescence ratio was found to be 1.089 ± 0.01. For ATTGTTGTGT the value was 0.9992 ± 0.0099; for CCGTCTCTCC, 1.73 ± 0.093. To ACCGGGAGGT belongs 1.01 ± 0.049; to TTGTGTTAGT, 0.958 ± 0.01.

Consider GGTGGTTATC, for which the switch fluorescence ratio is 1.01 ± 0.021. For GGGCTATATT the value was 0.9904 ± 0.0084; for CGTTATTTTT, 1.016 ± 0.0089.

For the sequence TTTTTGCTGG, the switch fluorescence ratio amounted to 0.99 ± 0.029. Consider ATGATTAAGA, for which the switch fluorescence ratio stood at 1.02 ± 0.019. With TAGAGGGGCG, the switch fluorescence ratio was 0.946 ± 0.065. For TTGAGGGCAT the value was 1.29 ± 0.45. For TGCTGACCGA the value was 1.04 ± 0.035; for TAAAGGCGCG, 0.985 ± 0.012; for CCCGGTTGAT, 1.047 ± 0.0074. For GGGCCGTGGG the value was 0.992 ± 0.017; for TGATTTCCAT, 0.9996 ± 0.0064. For TAGTGGACTC, the switch fluorescence ratio was 1.02 ± 0.034. To ATCTAGGCAG belongs 0.9915 ± 0.0043. To GGGGTGTGAA belongs 1.03 ± 0.059; to GGGACAGGCG, 0.991 ± 0.095. As to ACTATGACGT, the switch fluorescence ratio worked out at 1.04 ± 0.017. GTTTGGAGGT: the switch fluorescence ratio stood at 0.992 ± 0.03. To AATGAGGGGT belongs 0.966 ± 0.031; to ACAAGTGTTC, 1 ± 0.051. To GTGGATATTG belongs 1 ± 0.028; to AGGGGACTAT, 1 ± 0.013; to CTTAGCCTCA, 0.981 ± 0.034. To GAAAATCAGC belongs 0.976 ± 0.071; to GAATTATTGT, 0.959 ± 0.022; to CGATTCGCAG, 1.25 ± 0.096. Take GAGTAGGGGA: the switch fluorescence ratio amounted to 0.97 ± 0.055.

For TCGTATCGGG, the switch fluorescence ratio was determined as 1 ± 0.034. For the sequence TTGGGGTTAC, the switch fluorescence ratio was found to be 1.11 ± 0.16. In the case of AATCGTCTTG, the switch fluorescence ratio was 0.97 ± 0.034. On to ACATACGAAC, for which the switch fluorescence ratio was found to be 1.38 ± 0.098. To TTTTATTGGT belongs 0.9738 ± 0.0075; to ATCGTTCTGC, 1.1 ± 0.019.

TTGGTGAATT: the switch fluorescence ratio was found to be 0.99 ± 0.019. With AGGATCTACT, the switch fluorescence ratio was 1.01 ± 0.021. For the sequence CCAGACACAC, the switch fluorescence ratio is 1.45 ± 0.018.

Consider GGCATATGTA, for which the switch fluorescence ratio stood at 0.9829 ± 0.0076. To CGGGCTAAGG belongs 0.986 ± 0.018; to AATAGGCATG, 0.979 ± 0.0098.

In the case of TGGAACAGGG, the switch fluorescence ratio was found to be 1.03 ± 0.036. For CTGGTAAAGA, the switch fluorescence ratio was 0.984 ± 0.015.

As to TTGGGGAAGG, the switch fluorescence ratio worked out at 1.04 ± 0.034.

For the sequence AATTTGGGAG, the switch fluorescence ratio amounted to 1.01 ± 0.025. CGAGGCAGCT: the switch fluorescence ratio was 1.16 ± 0.15. For TAAATTATTT the value was 0.999 ± 0.023; for GGGGTCCTGA, 1.01 ± 0.062.

As to TAAAGTGTGC, the switch fluorescence ratio was found to be 0.9727 ± 0.0042.

In the case of GAAGTGCATT, the switch fluorescence ratio was 0.98 ± 0.053. For TTCCGGTCTT the value was 1.03 ± 0.066; for TGGTATGGGT, 1.23 ± 0.33; for CGTAACATGG, 1.022 ± 0.0099.
